T1: hBack
T1 chimeric human/tetraodon Sortilin extracellular region, BAP tag: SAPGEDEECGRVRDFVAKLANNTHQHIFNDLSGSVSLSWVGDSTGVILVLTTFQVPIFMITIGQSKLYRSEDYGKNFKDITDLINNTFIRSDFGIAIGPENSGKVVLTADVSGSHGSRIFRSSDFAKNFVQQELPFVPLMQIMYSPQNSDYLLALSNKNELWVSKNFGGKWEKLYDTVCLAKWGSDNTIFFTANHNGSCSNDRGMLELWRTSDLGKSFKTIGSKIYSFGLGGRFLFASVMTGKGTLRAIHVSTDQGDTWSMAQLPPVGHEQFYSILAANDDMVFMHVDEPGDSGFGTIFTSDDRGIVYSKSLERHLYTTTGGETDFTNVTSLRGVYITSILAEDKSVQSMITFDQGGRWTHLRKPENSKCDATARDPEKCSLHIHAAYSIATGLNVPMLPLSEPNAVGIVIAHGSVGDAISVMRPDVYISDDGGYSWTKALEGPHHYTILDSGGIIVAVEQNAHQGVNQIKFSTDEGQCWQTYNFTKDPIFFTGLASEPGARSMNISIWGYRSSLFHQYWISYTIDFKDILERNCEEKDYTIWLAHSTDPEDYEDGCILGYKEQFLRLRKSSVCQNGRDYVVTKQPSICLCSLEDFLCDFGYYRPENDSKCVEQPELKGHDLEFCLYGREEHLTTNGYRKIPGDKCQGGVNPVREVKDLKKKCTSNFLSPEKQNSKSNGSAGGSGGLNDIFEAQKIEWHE

T2: Sortilin hSORTECDBAP (human, UniProt Q99523 78-755)
T2 sequence: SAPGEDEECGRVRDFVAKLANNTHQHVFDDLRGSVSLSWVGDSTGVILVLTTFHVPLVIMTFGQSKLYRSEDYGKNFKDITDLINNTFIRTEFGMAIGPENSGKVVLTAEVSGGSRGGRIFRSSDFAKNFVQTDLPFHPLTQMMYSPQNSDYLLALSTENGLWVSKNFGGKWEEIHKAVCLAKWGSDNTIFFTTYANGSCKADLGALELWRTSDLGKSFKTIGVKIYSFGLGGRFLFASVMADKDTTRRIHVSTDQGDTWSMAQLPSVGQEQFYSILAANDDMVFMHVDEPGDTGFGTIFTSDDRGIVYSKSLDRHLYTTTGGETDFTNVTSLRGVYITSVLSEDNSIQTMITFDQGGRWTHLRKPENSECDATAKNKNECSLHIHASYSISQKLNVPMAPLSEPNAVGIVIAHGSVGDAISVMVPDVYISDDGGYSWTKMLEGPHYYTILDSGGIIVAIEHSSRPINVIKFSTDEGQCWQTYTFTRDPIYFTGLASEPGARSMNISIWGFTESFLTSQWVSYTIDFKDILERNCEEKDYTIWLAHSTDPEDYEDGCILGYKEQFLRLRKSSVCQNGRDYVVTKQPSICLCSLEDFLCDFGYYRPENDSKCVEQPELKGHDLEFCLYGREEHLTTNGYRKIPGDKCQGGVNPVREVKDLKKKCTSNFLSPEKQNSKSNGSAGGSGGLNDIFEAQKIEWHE

T3: Sortilin SORTECDBAP_hB06-10 (human/tetraodon chimera)
T3 construct: Shuffle construct: chimeric human/tetraodon Sortilin ECD with BAP tag
T3 chain: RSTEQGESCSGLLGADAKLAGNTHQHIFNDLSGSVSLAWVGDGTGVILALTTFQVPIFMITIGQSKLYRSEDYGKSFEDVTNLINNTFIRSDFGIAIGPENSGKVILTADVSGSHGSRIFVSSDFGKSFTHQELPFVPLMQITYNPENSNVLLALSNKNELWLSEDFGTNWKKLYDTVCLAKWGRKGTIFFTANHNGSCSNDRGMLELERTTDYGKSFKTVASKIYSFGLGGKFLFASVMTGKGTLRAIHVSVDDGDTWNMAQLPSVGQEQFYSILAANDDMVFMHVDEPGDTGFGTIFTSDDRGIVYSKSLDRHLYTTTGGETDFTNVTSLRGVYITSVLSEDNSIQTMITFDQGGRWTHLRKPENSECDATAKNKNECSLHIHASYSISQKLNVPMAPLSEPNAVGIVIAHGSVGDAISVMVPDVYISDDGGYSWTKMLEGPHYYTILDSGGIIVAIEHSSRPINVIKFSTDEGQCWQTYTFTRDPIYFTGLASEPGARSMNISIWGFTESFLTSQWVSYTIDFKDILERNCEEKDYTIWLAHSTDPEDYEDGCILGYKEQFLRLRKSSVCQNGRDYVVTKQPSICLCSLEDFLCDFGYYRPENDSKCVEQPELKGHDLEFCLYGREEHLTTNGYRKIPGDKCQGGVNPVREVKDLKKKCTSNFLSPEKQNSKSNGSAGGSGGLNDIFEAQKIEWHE

T4: Sortilin SORTECDBAP_hB45678 (human/tetraodon chimera)
T4 construct: Shuffle construct: chimeric human/tetraodon Sortilin ECD with BAP tag
T4 chain: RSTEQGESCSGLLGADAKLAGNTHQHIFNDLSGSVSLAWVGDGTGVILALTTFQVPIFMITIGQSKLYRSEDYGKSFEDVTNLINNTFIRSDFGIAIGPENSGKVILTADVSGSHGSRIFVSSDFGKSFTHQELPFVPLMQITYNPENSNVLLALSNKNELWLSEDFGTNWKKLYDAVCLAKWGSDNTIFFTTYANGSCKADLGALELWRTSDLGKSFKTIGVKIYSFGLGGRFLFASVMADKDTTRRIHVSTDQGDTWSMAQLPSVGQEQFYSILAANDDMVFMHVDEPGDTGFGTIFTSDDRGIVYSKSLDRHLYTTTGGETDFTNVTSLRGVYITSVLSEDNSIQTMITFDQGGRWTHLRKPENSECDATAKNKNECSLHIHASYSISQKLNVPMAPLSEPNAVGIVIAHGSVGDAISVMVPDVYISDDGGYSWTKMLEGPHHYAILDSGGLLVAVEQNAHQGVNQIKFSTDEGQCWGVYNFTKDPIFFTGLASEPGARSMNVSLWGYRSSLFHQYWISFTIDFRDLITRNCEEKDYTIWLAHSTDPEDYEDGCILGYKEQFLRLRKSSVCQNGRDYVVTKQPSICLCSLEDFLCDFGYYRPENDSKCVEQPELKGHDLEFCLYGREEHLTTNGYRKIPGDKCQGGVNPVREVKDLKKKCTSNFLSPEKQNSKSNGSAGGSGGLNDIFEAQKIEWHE

B1: Antibody 6003-900 (antibody, human IgG1, V domains shown)
VH: EVQLVESGGGLVKPGGSLRLSCAASGFTFSSYSMNWVRQAPGKGLEWVSSISSSSSYIYYADSVKGRFTISRDNAKNSLYLQMNSLRAEDTAVYYCARRGSGSYDAFDIWGQGTMVTVSS
VL: EIVLTQSPDFQSVTPKEKVTITCRASQSIGYSLHWYQQKPDQSPKLLIKYASQSFSGVPSRFSGSGSGTDFTLTINSLEAEDAAAYYCHQSSSLPLTFGGGTKVEIK
notes: also called antibody 900; Sortilin human antibody 900
B2: Antibody 6003-799 (antibody, human IgG1, V domains shown)
VH: QVQLVESGGGVVQPGRSLRLSCAASGFTFSSYGMHWVRQAPGKGLEWVTVISYDGSNKYYADSVKGRFTISRDNSKNTLYLQMNSLRAEDTAVYYCAKLTGDAFDIWGQGTMVTVSS
VL: EIVLTQSPATLSLSPGERATLSCRASQSVSSYLVWYQQKPGQAPRLLIYHASNRATGIPARFSGSGSGTDFTLTISSLEPEDFAVYYCQQRSNWPRITFGQGTRLEIK
B3: Antibody 6003-886 (antibody, human IgG1, V domains shown)
VH: QVQLVQSGAEVKKPGASVKVSCKASGYTFTKYGISWVRQAPGQGLEWMGWISAYNGNTNYAQKLQDRVTMTTDTFTSTAYMELRSLRSDDTAVYFCARDGPLTGDFTFYGMDVWGQGTTVTVSS
VL: B2 VL with V34A, H50D, R96P, I97F, Q101P, R104K, L105V, E106D
B4: Antibody 6003-822 (antibody, human IgG1, V domains shown)
VH: EVQLLESGGGLVQPGESLTLSCAASGFTLSSYAMSWVRQAPGKGLEWVSSISGRLGTTYYAASVKGRFTISRDNSKNTLYLQMNSLRAEDTAIYSCAKAPSDAFDIWGQGTMVTVSS
VL: B2 VL with V34A, H50D, R96I, I97F, Q101P, R104K, L105V, E106D
B5: IgG1-6003-910 (antibody, V domains shown)
VH: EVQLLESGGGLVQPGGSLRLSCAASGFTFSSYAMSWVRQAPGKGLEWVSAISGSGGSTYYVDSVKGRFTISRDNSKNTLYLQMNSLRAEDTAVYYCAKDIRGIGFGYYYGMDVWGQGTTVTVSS
VL: EIVLTQSPATLSLSPGERATLSCRASQSVSSYLVWYQQKPGQAPRLLIYDASNRATGIPARFSGSGSGTDFTLTISSLEPEDFAVYYCQQRSNWPPTFGQGTRLEIK
notes: also called Antibody 6003-910
B6: IgG1-6003-972 (antibody, V domains shown)
VH: QVQLVESGGGVVQPGRSLRLSCAASGFTFSDYAMHWVRRAPGKGLEWVVVISYDGSNKYYADSVKGRFTISRDNSKNTLYLQMNSLRAEDTAVYYCARDPSGGWYFDLWGRGTLVTVSS
VL: B5 VL with V34A, V85L, N93H, P96R, R103K, L104V
notes: also called Antibody 6003-972

Where a chain is given by its changes, count along the chain named.

One assay addresses T1, hBack. The assay is described as follows: BLI (Octet384RED).
As to B1, the 50% effective concentration (EC50) – broadly, the midpoint of the concentration-response curve – came out at 1.16 ng/mL.

Consider B2, for which the EC50 amounted to 3.2 ng/mL. This EC50 is about 2.8-fold higher than that of the molecule before.

Regarding B3, the midpoint of the response, the EC50, lay at 2.72 ng/mL. The EC50 values of the last two molecules are within 1.5-fold of each other.

B4 showed a half-maximal effective concentration (EC50) of 2.59 ng/mL.

B5 registered an EC50 of 1.54 ng/mL.

B6 yielded an EC50 of 1.49 ng/mL.

Another assay has as its target T2, Sortilin hSORTECDBAP
In words: BLI (Octet384RED).
Molecule B1 had a concentration giving a half-maximal response (EC50) of 1.06 ng/mL.

In turn, B2 returned an EC50 of 3.49 ng/mL.

Take B3: the EC50 was 3.4 ng/mL. This EC50 and that of the molecule before are within 1.5-fold of each other.

In the case of B4, the concentration for a half-maximal effect (EC50) is 1.97 ng/mL.

Consider B5, for which the EC50 worked out at 1.34 ng/mL.

Take B6: the midpoint of the response, the EC50, lay at 1.35 ng/mL.

Another assay concerns the target T3, Sortilin SORTECDBAP_hB06-10. In words: BLI (Octet384RED).
On to B1, for which the half-maximal effective concentration (EC50) came to 0.91 ng/mL.

For the molecule B2, the concentration for a half-maximal effect (EC50) worked out at 2.63 ng/mL.

B3: it took 2.44 ng/mL to reach a half-maximal effect (EC50).

The molecule B4 gave a 50% effective concentration (EC50) of 1.49 ng/mL.

Molecule B5 showed a concentration giving a half-maximal response (EC50) of 1.16 ng/mL.

Molecule B6 showed an EC50 of 1.12 ng/mL.

For a further assay, the target named is T4, Sortilin SORTECDBAP_hB45678. In words: BLI (Octet384RED).
B1 yielded a concentration for a half-maximal effect (EC50) of 1.19 ng/mL.

In the case of B2, the 50% effective concentration (EC50) was 4.16 ng/mL.

For B3, the midpoint of the response, the EC50, lay at 3.45 ng/mL.

Molecule B4 yielded a concentration giving a half-maximal response (EC50) of 2.08 ng/mL.

Regarding B5, the EC50 is 2.23 ng/mL.

Turning to B6, the 50% effective concentration (EC50) is 2.57 ng/mL.

For the origin of these results see patent US20210292414A1 (H LUNDBECK A S, published 2021).
